Biological target: T1, human endogenous retrovirus-E (HERV-E); CT-RCC-1 peptide peptide on HLA-A11 (human)
T1 peptide: ATWLGSKTWK
Assay: multimer staining

B1: HLA-A11 restricted HERV-E TCR (TCR, V domains shown)
Valpha: GIQVEQSPPDLILQEGANSTLRCNFSDSVNNLQWFHQNPWGQLINLFYIPSGTKQNGRLSATTVATERYSLLYISSSQTTDSGVYFCAVRGGADGLTFGKGTHLIIQP
Vbeta: DTEVTQTPKHLVMGMTNKKSLKCEQHMGHRAMYWYKQKAKKPPELMFVYSYEKLSINESVPSRFSPECPNSSLLNLHLHALQPEDSALYLCASSPPNEKLFFGSGTQLSVL
Q: Does B1 bind?
A: Result: recognises
